T1: human EphA10 (Homo sapiens, UniProt Q5JZY3)
T1 construct: a protein of the extracellular region of each human Eph receptor fused with the SEAP protein and the His tag; made in house; host or cells: Expi293F cells (culture supernatant)
T1 sequence (Q5JZY3 34-565 limits assumed): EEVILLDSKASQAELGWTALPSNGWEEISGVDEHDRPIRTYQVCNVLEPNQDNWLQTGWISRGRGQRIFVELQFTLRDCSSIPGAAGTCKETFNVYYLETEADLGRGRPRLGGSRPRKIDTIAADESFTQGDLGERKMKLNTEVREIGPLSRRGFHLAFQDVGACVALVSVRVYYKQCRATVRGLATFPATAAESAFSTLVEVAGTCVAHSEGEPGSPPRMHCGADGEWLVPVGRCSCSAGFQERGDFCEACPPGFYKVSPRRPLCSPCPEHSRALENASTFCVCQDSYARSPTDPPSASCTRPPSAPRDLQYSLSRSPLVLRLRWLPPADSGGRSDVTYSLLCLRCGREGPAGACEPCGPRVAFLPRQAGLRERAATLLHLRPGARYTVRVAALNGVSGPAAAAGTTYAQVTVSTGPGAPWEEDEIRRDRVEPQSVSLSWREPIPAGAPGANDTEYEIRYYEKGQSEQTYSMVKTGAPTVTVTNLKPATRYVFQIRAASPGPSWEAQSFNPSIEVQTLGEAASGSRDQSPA

T2: human EphA6 (Homo sapiens, UniProt Q9UF33)
T2 construct: a protein of the extracellular region of each human Eph receptor fused with the SEAP protein and the His tag; made in house; host or cells: Expi293F cells (culture supernatant)
T2 sequence (Q9UF33 23-550 limits assumed): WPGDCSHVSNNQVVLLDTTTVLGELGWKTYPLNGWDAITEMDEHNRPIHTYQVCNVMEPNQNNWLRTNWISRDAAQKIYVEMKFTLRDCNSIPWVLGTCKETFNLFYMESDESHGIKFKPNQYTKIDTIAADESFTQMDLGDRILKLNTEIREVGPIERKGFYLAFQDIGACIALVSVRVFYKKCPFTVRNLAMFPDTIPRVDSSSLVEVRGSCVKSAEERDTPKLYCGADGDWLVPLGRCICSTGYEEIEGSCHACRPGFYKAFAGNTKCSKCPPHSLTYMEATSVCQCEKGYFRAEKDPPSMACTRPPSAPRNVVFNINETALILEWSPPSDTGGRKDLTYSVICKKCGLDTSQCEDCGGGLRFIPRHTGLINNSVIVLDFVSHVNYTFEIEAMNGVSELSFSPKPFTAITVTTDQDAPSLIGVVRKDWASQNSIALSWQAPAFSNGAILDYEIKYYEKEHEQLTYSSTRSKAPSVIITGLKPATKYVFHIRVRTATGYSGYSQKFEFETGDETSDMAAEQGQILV

T3: human EphA7 (Homo sapiens, UniProt Q15375)
T3 construct: a protein of the extracellular region of each human Eph receptor fused with the SEAP protein and the His tag; made in house; host or cells: Expi293F cells (culture supernatant)
T3 sequence (Q15375 28-555 limits assumed): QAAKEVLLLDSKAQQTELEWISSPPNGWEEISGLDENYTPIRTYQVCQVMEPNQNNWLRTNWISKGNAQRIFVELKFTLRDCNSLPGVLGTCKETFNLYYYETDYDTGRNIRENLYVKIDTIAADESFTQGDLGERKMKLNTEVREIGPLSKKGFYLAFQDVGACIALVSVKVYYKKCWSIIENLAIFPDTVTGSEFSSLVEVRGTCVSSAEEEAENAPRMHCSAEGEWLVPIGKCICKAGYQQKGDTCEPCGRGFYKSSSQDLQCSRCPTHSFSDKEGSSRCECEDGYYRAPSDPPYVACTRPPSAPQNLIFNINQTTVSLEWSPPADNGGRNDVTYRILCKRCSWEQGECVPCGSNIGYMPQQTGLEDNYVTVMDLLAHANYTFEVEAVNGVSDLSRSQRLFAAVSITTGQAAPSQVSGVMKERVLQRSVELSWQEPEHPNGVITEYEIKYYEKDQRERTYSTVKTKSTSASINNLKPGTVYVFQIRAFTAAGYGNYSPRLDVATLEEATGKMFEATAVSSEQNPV


Assays:
Assay in all cases: Selectivity ELISA of humanized antibodies for human Eph receptor
Assay type in all cases: binding
Settings in all cases: coated protein 1 nM
human EphA10 = biological target: T1, human EphA10
Method in brief: (§1)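 Human Eph ECD-SEAP-His fusions, harvested after 5 days of Expi293F expression, are captured on anti-His-coated wells (1 nM final). Bound humanized antibody is detected with HRP anti-IgG and TMB at 450 nm.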

human EphA6 = biological target: T2, human EphA6
Method in brief: as §1

human EphA2 = biological target: T4, human EphA2 (Homo sapiens, UniProt P29317)
T4 construct: a protein of the extracellular region of each human Eph receptor fused with the SEAP protein and the His tag; made in house; host or cells: Expi293F cells (culture supernatant)
T4 sequence (P29317 24-537 limits assumed): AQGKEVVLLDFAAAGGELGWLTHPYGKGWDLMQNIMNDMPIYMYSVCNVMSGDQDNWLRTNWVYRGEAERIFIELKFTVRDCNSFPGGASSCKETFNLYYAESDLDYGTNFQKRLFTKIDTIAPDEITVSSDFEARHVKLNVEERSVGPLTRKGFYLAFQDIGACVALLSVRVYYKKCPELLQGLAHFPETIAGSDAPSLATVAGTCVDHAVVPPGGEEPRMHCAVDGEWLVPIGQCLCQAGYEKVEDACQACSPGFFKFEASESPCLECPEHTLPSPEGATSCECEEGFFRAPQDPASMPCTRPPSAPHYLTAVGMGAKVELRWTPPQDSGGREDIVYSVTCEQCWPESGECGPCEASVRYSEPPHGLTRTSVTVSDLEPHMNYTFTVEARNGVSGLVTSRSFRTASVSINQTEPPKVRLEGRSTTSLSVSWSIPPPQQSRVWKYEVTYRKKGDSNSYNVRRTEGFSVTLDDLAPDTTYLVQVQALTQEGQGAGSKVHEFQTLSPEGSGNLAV
Method in brief: as §1

human EphA7 = biological target: T3, human EphA7
Method in brief: as §1

hEphA10-SEAP-: absorbance at 450 nm, percentage with respect to hEphA4-SEAP-His as 100% (human EphA10) [%]	hEphA6-SEAP-: absorbance at 450 nm, percentage with respect to hEphA4-SEAP-His as 100% (human EphA6) [%]	hEphA2-SEAP-: absorbance at 450 nm, percentage with respect to hEphA4-SEAP-His as 100% (human EphA2) [%]	hEphA7-SEAP-: absorbance at 450 nm, percentage with respect to hEphA4-SEAP-His as 100% (human EphA7) [%]	Molecule
4.4	8.3	4.6	4.7	75 (antibody, synthetic humanized antibody heavy chain variable region sequence; synthetic humanized antibody light chain variable region sequence; synthetic antibody constant region sequence) VH: QVQLVQSGSELKKPGASVKVSCKASGYTFTDYSMHWVRQAPGQGLEWMGWINTETGEPTYAQGFTGRFVFSLDTSVSTAYLQISSLKAEDTAVYYCARIPLYYYGSRYWYFDVWGQGTTVTVSS VL: DIQMTQSPSSLSASVGDRVTITCRASENIYRNLAWYQQKPGKAPKLLVYAATNLADGVPSRFSGSGSGTDYTLTISSLQPEDFATYYCQHFWGTPWTFGQGTKVEIK ASTKGPSVFPLAPSSKSTSGGTAALGCLVKDYFPEPVTVSWNSGALTSGVHTFPAVLQSSGLYSLSSVVTVPSSSLGTQTYICNVNHKPSNTKVDKRVEPKSCDKTHTCPPCPAPPAAAPSVFLFPPKPKDTLMISRTPEVTCVVVDVSHEDPEVQFNWYVDGVEVHNAKTKPREEQFNSTFRVVSVLTVVHQDWLNGKEYKCKVSNKGLPAPIEKTISKTKGQPREPQVYTLPPSREEMTKNQVSLTCLVKGFYPSDIAVEWESNGQPENNYKTTPPMLDSDGSFFLYSKLTVDKSRWQQGNVFSCSVMHEALHNHYTQKSLSLSPG
5.2	10.0	4.9	5.0	78 (antibody, V domains shown, synthetic humanized antibody heavy chain variable region sequence; synthetic humanized antibody light chain variable region sequence) VH: QVQLVQSGSELKKPGASVKVSCKASGYTFTDYSMHWVRQAPGQGLKWMGWINTETGEPTYADDFKGRFVFSLDTSVSTAYLQISSLKAEDTAVYYCARIPLYYYGSRYWYFDVWGQGTTVTVSS VL: DIQMTQSPSSLSASVGDRVTITCRASENIYRNLAWYQQKPGKAPKLLVYAATNLADGVPSRFSGSGSGTDYTLTISSLQPEDFATYYCQHFWGTPWTFGQGTKVEIK
4.7	7.9	4.8	4.8	76 (antibody, V domains shown, synthetic humanized antibody heavy chain variable region sequence; synthetic humanized antibody light chain variable region sequence) VH: QVQLVQSGSELKKPGASVKVSCKASGYTFTDYSMHWVRQAPGQGLKWMGWINTETGEPTYAQGFTGRFVFSLDTSVSTAYLQISSLKAEDTAVYYCARIPLYYYGSRYWYFDVWGQGTTVTVSS VL: DIQMTQSPSSLSASVGDRVTITCRASENIYRNLAWYQQKPGKAPKLLVYAATNLADGVPSRFSGSGSGTDYTLTISSLQPEDFATYYCQHFWGTPWTFGQGTKVEIK
5.2	7.2	5.1	5.4	136 (antibody, V domains shown, synthetic humanized antibody heavy chain variable region sequence; synthetic humanized antibody light chain variable region sequence) VH: QVQLVQSGSELKKPGASVKVSCKASGYTFTDYSMHWVRQAPGQGLKWMGWINTETGEPTYADDFKGRFVFSLDTSVSTAYLQISSLKAEDTAVYYCARIPLYYYGSRYWYFDVWGQGTTVTVSS VL: EIVMTQSPATLSVSPGERATLSCRASENIYRNLAWYQQKPGQSPRLLIYAATNLADGIPARFSGSGSGTEYTLTISSLQSEDFAVYYCQHFWGTPWTFGQGTKVEIK
4.5	6.0	4.5	4.3	77 (antibody, V domains shown, synthetic humanized antibody heavy chain variable region sequence; synthetic humanized antibody light chain variable region sequence) VH: QVQLVQSGSELKKPGASVKVSCKASGYTFTDYSMHWVRQAPGQGLEWMGWINTETGEPTYADDFKGRFVFSLDTSVSTAYLQISSLKAEDTAVYYCARIPLYYYGSRYWYFDVWGQGTTVTVSS VL: DIQMTQSPSSLSASVGDRVTITCRASENIYRNLAWYQQKPGKAPKLLVYAATNLADGVPSRFSGSGSGTDYTLTISSLQPEDFATYYCQHFWGTPWTFGQGTKVEIK
5.3	8.9	5.5	5.6	156 (antibody, V domains shown, synthetic humanized antibody heavy chain variable region sequence; synthetic humanized antibody light chain variable region sequence) VH: QIQLVQSGSELKKPGASVKVSCKASGYTFTDYSMHWVRQAPGQGLKWMGWINTETGEPTYAQGFTGRFVFSLDTSVSTAYLQISSLKAEDTAVYYCARIPLYYYGSRYWYFDVWGQGTTVTVSS VL: DIQMTQSPSSLSASVGDRVTITCRASENIYRNLAWYQQKPGKAPQLLLYAATNLADGVPSRFSGSGSGTDYTLTISSLQPEDFATYYCQHFWGTPWTFGQGTKVEIK
4.6	7.3	4.6	4.7	67 (antibody, V domains shown, synthetic humanized antibody heavy chain variable region sequence; synthetic humanized antibody light chain variable region sequence) VH: QIQLVQSGSELKKPGASVKVSCKASGYTFTDYSMHWVRQAPGQGLKWMGWINTETGEPTYAQGFTGRFVFSLDTSVSTAYLQISSLKAEDTAVYYCARIPLYYYGSRYWYFDVWGQGTTVTVSS VL: DIQMTQSPSSLSASVGDRVTITCRASENIYRNLAWYQQKPGKAPKLLVYAATNLADGVPSRFSGSGSGTDYTLTISSLQPEDFATYYCQHFWGTPWTFGQGTKVEIK

Reference: patent US10428140B2, “Anti-EphA4 antibody” (EISAI R&D MANAGEMENT CO., LTD., priority 2015, dated 2019)
